# Assay results published in patent publication US20140271653A1 (Regeneron, published 2014).
# Residue numbers refer to the chain shown, from its start.
# B1: H1H3589P (antibody, V domains shown)
# VH: EVQLVESGGGLVQPGGSLRLSCEASGFTFSTYWMSWVRQAPGKGLEWVANIKQDGSVKYFVDSVKGRFTVSRDNAKNSLYLQMNSLRAEDTALYHCARERHRGSYYGYYDGMDVWGQGTTVTVSS
# VL: DIQMTQSPSSLSASVGDRVTITCRASQNIDIYLNWYQERPGKAPNLLIYAASSLQSGVPSRFSGSGSGTDFTLTISSLQPEDFATYYCQQSYNTPFTFGGGTKVEIK
# B2: H1H3591P (antibody, V domains shown)
# VH: EVQLVESGGGLVQPGRSLRLSCAASGFTFDDYAMHWVRQTPGKGLEWISGISWSSGTIVYADSVKGRFTISRDNAKNSLYLQMNSLRGEDTALYHCAKDGYRWKSYSYGLDVWGQGTTVTVSS
# VL: EIVMTQSPATLSLSPGERATLSCRPSQSVINNLAWYQQKPGQAPRLLIFGASSRATGIPARFSGSGSGTEFTLTISSLQSEDFALYYCQQYNNWPLTFGGGTKVEIK
# B3: H1H3597P (antibody, V domains shown)
# VH: EVQLVESGGGLVQPGGSLRLSCGASGFTFRDFDMNWVRQAPGRGLEWVSGIGGSGGNTYYADSVKGRFTISRDNSKNTLFLQMSSLRAEDTAVYYCVKDPYGDYRNYYGMDVWGQGTTVTVSS
# VL: DIVMTQSPLSLPVTPGEPASISCRSSQSLLHSNGYNYLDWYLQKPGQSPQLLIYLGSNRASGVPDRFRGSGSDKDFTLKISRVGAEDVGVYYCMQALQTITFGQGTRLEIK
# B4: H1H3598P (antibody, V domains shown)
# VH: EVQLVESGGGLGQPGGSLRLSCGASGFMFRNYAMSWVRQAPGKGLEWVSTILDSGDNTYYADSVKGRFTISRDNSKNTLYLQMNSLRAEDTAVYYCAKDPYGDYRDYYGMDVWGQGTTVTVSS
# VL: B3 VL with D73G, G84E, V90L
# B5: H1H3603P (antibody, V domains shown)
# VH: QVQLQESGPGLVKPSETLSLTCTVSGGSISGYYWTWIRQPPGKGLEWIGYIYYSGATNYNPSLKSRVTISLDTSKNQFSLKLSSVTAADTAVYYCARDGNYDILTGYYNYHYYGMDVWGQGTTVTVSS
# VL: DIQMTQSPSSLSASVGDRVTITCRASQDIGNYLAWFQQKPGKAPESLIYAASILQSGVPSKFSGSGSGTDFTLTISSLQPEDFATYYCQQYNTFPWTFGQGTKVEIK
# B6: H1H3604P (antibody, V domains shown)
# VH: QVQLVESGGGLVKPGGSLRLSCAASGFTFSDYYMTWIRQAPGRGLEWVSYISDTGSHLYYADSVRGRFTISRDNAKNSLYLQMNNLRAEDTAVYYCARDQDGEMELRFFDYWGQGTLVTVSS
# VL: EIVLTQSPATLSLSPGERGTLSCRASQSINNYLAWYQQKPGQAPRLLIFDASNRATGIPARFSGSGSGTDFTLTISRIEPEDFAVYYCQQRTNWPLTFGGGTKVEIK
# B7: H1H3605P (antibody, V domains shown)
# VH: QVQLQESGPGLVKPSETLSLTCTVSGGFISNYYWSWIRQPPGKGLEWIGYIYYSGSTKYNPSLKSRVTISVDTSKNQFSLKLSSVSAADTAVYYCARDGVVAAAGPPYHYHYGLDVWGQGTTVTVSS
# VL: DIVMTQSPDSLAVSLGERATINCKSSQNLLYTSSNKNSLAWYQQKPGQPPELLIYWASTRESGVPDRFSGSGSGTDFILTISSLQAEDVAVYYCQQYYSSPWTFGQGTKVEIK
# B8: H1H3607P (antibody, V domains shown)
# VH: QVQLVESGGGLVKPGGSLRLSCAASGFTFSDYYMTWIRQVPGKGLEWVSYISSTGNNRYYGDSVKGRFAISRDNAKNLLFLQMNSLKAEDTAVYYCARENNWNPYFFYYGMDVWGQGTTVTVSS
# VL: DIQMTQSPSSVSASVGDRVTITCRASQGISIWLAWYQQKPGKAPKLLISAASTLQSGVPSRFSGSGSGTDFTLTISSLQPEDFATYYCQQANSFPLTFGQGTKVEIK
# B9: H1H3608P2 (antibody, V domains shown)
# VH: QVQLVESGGGVVQPGRSLRLSCAASGFTFSSYGMHWVRQAPGKGLEWVAVIYYEGSNDYYVDSVKGRFTISRDNSKNTLYLQMNSLRAEDTAVYYCARRDWNSFDYWGQGTLVTVSS
# VL: DIVMTQSPLSLSVTPGEPASISCRSSQNLLNRNGFNYLDWYLQKPGQSPQLLIYLGSNRASGVPDRFSGSGSGTDFTLKISRVEVEDVGVYYCMQAIQTPYTFGQGTKLEIK
# Experiments:
# [1] = target: RSV-F of RSV subtype A strain A2 (1540) (respiratory syncytial virus subtype A, …, UniProt P03420 26-574); experiment: cell-based or functional assay
# [2] = target: T1, RSV-F.mmh (Respiratory Syncytial Virus); experiment: SPR (Biacore), mAb captured via Fc, soluble RSV-F.mmh injected, 25 C
# T1 construct: also called recombinant RSV-F; soluble monomeric RSV-F
Binder,"IC50 [pM] for RSV A2 Neutralization, Trial 5 [1]",Kd [2],koff [2],kon [2],t½ [2],"IC50 [pM] for RSV A2 Neutralization, Trial 4 [1]","IC50 [pM] for RSV A2 Neutralization, Trial 6 [1]","IC50 [pM] for RSV A2 Neutralization, Trial 7 [1]","IC50 [pM] for RSV A2 Neutralization, Trial 1 [1]",binding result [2]
B1,300 pM,243 nM,0.00914 s⁻¹,37700 M⁻¹ s⁻¹,0.0167 h,–,–,–,–,–
B2,–,34.2 nM,0.00153 s⁻¹,44600 M⁻¹ s⁻¹,0.133 h,6 pM,8 pM,6 pM,–,–
B3,–,–,–,–,–,–,–,–,> 10000 pM,no binding
B4,–,–,–,–,–,–,–,–,> 10000 pM,no binding
B5,–,41 nM,0.000123 s⁻¹,3000 M⁻¹ s⁻¹,1.57 h,–,–,–,> 10000 pM,–
B6,–,30 nM,9.27e-05 s⁻¹,3100 M⁻¹ s⁻¹,2.08 h,–,–,–,> 10000 pM,–
B7,–,59 nM,0.000168 s⁻¹,2800 M⁻¹ s⁻¹,1.15 h,–,–,–,> 10000 pM,–
B8,–,35 nM,0.000148 s⁻¹,4200 M⁻¹ s⁻¹,1.3 h,–,–,–,> 10000 pM,–
B9,–,5.35 nM,2.6e-05 s⁻¹,4850 M⁻¹ s⁻¹,7.42 h,–,–,–,> 10000 pM,–
